Patent US20190175684A1
Square brackets hold non-standard residues; d marks the D form. Ends that are not written are not given here.

Columns and labels:
annexin A1 [1] = experiment: QCM, peptide fixed on the sensor chip, Anxa1 injected at various doses
annexin A1 [2] = experiment: QCM (quartz crystal microbalance)

Work on [dL][dR][dF][dP][dT][dV][dL] [dLRF7 peptide] yielded a Kd (annexin A1 [1]) of 31.2 nM.

In the case of [dS][dP][dT][dS][dL][dL][dF] [dSPT7 peptide], the Kd (annexin A1 [1]) is reported as 90.3 nM.

With [dT][dI][dT][dW][dP][dT][dM] [dTIT7 peptide] the Kd (annexin A1 [2]) was 45.7 nM.

[dL][dL][dS][dW][dP][dS][dA] [dLLS7 peptide] showed a Kd (annexin A1 [1]) of 54.2 nM.

[dM][dP][dT][dL][dT][dF][dR] [dMPT7 peptide] was tested, and the Kd (annexin A1 [1]) was 298 nM.
